The text below walks through data of PMC10748205.

What all share (experiment): two-hybrid
The target of experiment [1] is Gt-1 ORF3 MAPPIT (hepatitis E virus genotype 1 (Sar-55)).
Experiment [2] concerns the target Gt-3 ORF3 KISS (hepatitis E virus genotype 3 (Kernow-C1 p6)).
Experiment [3] has as its target Gt-1 ORF3 KISS (hepatitis E virus genotype 1 (Sar-55)).

B1: SHANK-Associated RH Domain Interactor (natural protein)
chain: MAPPAGGAAAAASDLGSAAVLLAVHAAVRPLGAGPDAEAQLRRLQLSADPERPGRFRLELLGAGPGAVNLEWPLESVSYTIRGPTQHELQPPPGGPGTLSLHFLNPQEAQRWAVLVRGATVEGQNGSKSNSPPALGPEACPVSLPSPPEASTLKGPPPEADLPRSPGNLTEREELAGSLARAIAGGDEKGAAQVAAVLAQHRVALSVQLQEACFPPGPIRLQVTLEDAASAASAASSAHVALQVHPHCTVAALQEQVFSELGFPPAVQRWVIGRCLCVPERSLASYGVRQDGDPAFLYLLSAPREAPATGPSPQHPQKMDGELGRLFPPSLGLPPGPQPAASSLPSPLQPSWSCPSCTFINAPDRPGCEMCSTQRPCTWDPLAAAST
As to B1, in experiment [1], the BP/BIP came to 61.2, the BP/PIB was 69.9 and the Value BP (bait-prey fold induction) was found to be 82.1. Besides, in experiment [2], the BP/BIP stood at 25.4, the BP/PIB came to 101 and the Value BP (bait-prey luciferase value) amounted to 188000. In experiment [3], the BP/BIP turned out to be 42.2, the BP/PIB amounted to 429 and the Value BP (bait-prey luciferase value) was 796000.
